The supplement of paper PMC12764529
± gives the half width of the 95% confidence interval.

What was measured:
[1] = folding stability dG unfold from trypsin proteolysis; higher = more stable
Method in brief: (§1)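 Bayesian fitting of sequencing counts gave K50 for each design. Unfolding free energy followed by setting this against a sequence-predicted unfolded-state K50 and a shared folded-state K50, either per protease or with trypsin and chymotrypsin combined. The designs, under 80 residues and lacking cysteine, were digested in a PA-tagged cDNA display format at 11 threefold-diluted protease concentrations and without protease, and only those with AlphaFold2 dimer inter-PAE above 15 were kept.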

[2] = folding stability dG unfold from chymotrypsin proteolysis; higher = more stable
Method in brief: as §1

[3] = folding stability dG unfold (combined trypsin and chymotrypsin); higher = more stable
Method in brief: as §1

Sequence | folding stability dG unfold [1] [kcal/mol] | folding stability dG unfold [2] [kcal/mol] | folding stability dG unfold [3] [kcal/mol]
SAGKIPPGEEQKKKIKLGGKEIKIKMWTYKNPDGQPHMMFRVEYDGEPGIFNPDSGRPMTPDDIKKMLKSAG [r5_138_TrROS] | 0.0292 ± 0.19 | 1.24 ± 0.35 | 0.788 ± 0.26
SMKIEPHPDGTVTFTIPAEFPDIPAEEIAALIEKALPPGVRLGEEITVERDPETGEVRVTAKVEVPPDAVSA [r9_1011_TrMRF] | 2.49 ± 0.12 | 2.81 ± 0.073 | 2.74 ± 0.12
SAGGSKKVPIKVKIEVYNKNGEKMTLEELLKKLEENAKVEKDEKGRLTLYIVNKKTNKIVKIEVEKSAGGSA [r2_234_TrROS_Hall] | 1.74 ± 0.18 | 1.92 ± 0.19 | 1.72 ± 0.27
SAGGSAGGSAGGSPSPLGKTRPALPASPVLKVPVTLPDDSLLTVYYDPLTGSLVVESYSSAGGSAGGSAGGS [r4_305_TrMRF] | 0.326 ± 0.026 | 0.414 ± 0.12 | 0.467 ± 0.07
SAGGSAGGMKIEIIEEKDGYIVLRVSPEDLEALEKLGFEIVSVEEVEGELYIVIKVSPEALKALSAGGSAGG [r6_108_TrROS_Hall] | 3.58 ± 0.095 | 3.5 ± 0.037 | 3.55 ± 0.066
SAGGSMTLTGESEEEAKALVEALKEELKKKYPEKPNLEIPVKVIIKDPKTGKETEKVFKVKIPIPKSAGGSA [r2_393_JUSTAS] | 1.04 ± 0.028 | 1.11 ± 0.09 | 1.14 ± 0.062
SAGGSAGGSAMFPDNTTVIEKEVPSSDVESAIEEIKKEYGVENYEVTTEPRPGTVKITVTIKPSAGGSAGGS [r12_929_JUSTAS] | 1.65 ± 0.064 | 1.34 ± 0.038 | 1.53 ± 0.093
SAGGSAMPPVKVEVVEAEPFVVEGEGGLYLVRPFLVRAPDLPRLFLVVLVEDPGEPDVLAEVFDLDSAGGSA [r15_528_TrMRF] | 1.84 ± 0.041 | 2.55 ± 0.045 | 2.37 ± 0.099
SAGGSAGGMKPGEEKEITLPDGSKIKVRIKDGKLEIEFENGERKEIEIKPGEKIEIKLPKGVKPSAGGSAGG [r6_970_TrROS_Hall] | 1.4 ± 0.076 | 2.05 ± 0.085 | 1.81 ± 0.083
DYRVVIEDLELVPAPPGTRISMPAWVDHDGVRYGEVESYVDPETGTVTLRLLVEPDGEPRELTLTLPVPPES [r1_47_TrMRF] | 0.545 ± 0.034 | 0.629 ± 0.061 | 0.625 ± 0.061
SAGGMSPVKVAEKTYVIPLPSSMTKEEAKEEVKKELVPKGIDKIDIPISEDPNKGTLIIKVTVYKYPNESAG [r5_924_JUSTAS] | 0.297 ± 0.2 | 0.757 ± 0.27 | 0.49 ± 0.35
SAVTPISLPSETGTLYRTDTDVILVVLKDPDPSVYRIITLKKKSADIKPLDENILGELSPEEANNPELLSAG [r14_384_JUSTAS] | 0.617 ± 0.055 | 0.756 ± 0.11 | 0.742 ± 0.081
SAGGSAGGSAEKLLIVVEVDTPEQAEALAKALAALLPPGAKITVKPVEVDGKLYLVAEVELSAGGSAGGSAG [r3_92_TrROS_Hall] | 3.6 ± 0.16 | 3.84 ± 0.21 | 3.75 ± 0.2
SAGELEVTVTVRTETRTETREEEERRRREAAPPVRLRVFFPDTGLAVELEFDANGNIVSVKVTELPEDLSAG [r5_342_TrROS_Hall] | 1.87 ± 0.11 | 2.67 ± 0.051 | 2.39 ± 0.1
SAGGKTKVINVKVKSIEELLEKLAKLPNVKKVEVKEVNGKKEITIEVDGKKIKITKNKDGYYSIEIFPSAGG [r13_907_TrROS_Hall] | 2.16 ± 0.12 | 1.98 ± 0.34 | 2.25 ± 0.37
SAGGKKITITLTVKTPEDALAAARELAEALGLKIKKIKKVEVTYDEENNLVTVKVEIEIEPLPEEELSAGGS [r16_155_TrROS_Hall] | 4.69 ± 0.33 | 4.27 ± 0.1 | 4.41 ± 0.19
SAGGSAGGSAGGMKTIEITNADGSKATAELLPDGWVKIYFEETGEEKTLPAKDLTITPPSAGGSAGGSAGGS [r10_289_TrROS_Hall] | 0.423 ± 0.038 | 0.5 ± 0.013 | 0.466 ± 0.05
SAGGSAGGSAGGSMVSVEEFEVELPGGSKVKATVLIDPEGPLTVLLGDETFILPKEELGSAGGSAGGSAGGS [r10_649_JUSTAS] | -0.22 ± 0.2 | -0.229 ± 0.19 | -0.118 ± 0.13
SAGGSAMKPDDYVVIKIEIENMSEEEIAKKLADELKKLFPDVEVKVTVEKEEDGRYRVTIEVVLKKSAGGSA [r15_916_TrROS_Hall] | 1.83 ± 0.056 | 3.34 ± 0.15 | 2.83 ± 0.26
SAGMEEKLVEAVFEEGPLEEAVEFIRDFLESEGYEVEPLEVEVLSVEETEEGPRVRVRARVLVRPPDASAGG [r19_325_TrMRF] | 1.11 ± 0.081 | 1.52 ± 0.16 | 1.34 ± 0.18
SAGGSAGGGGPGAPAVPTVSINIKIEEGEKVTIRNGTNKDEIIKSTKEEAEKKGKKVTVETVEGSAGGSAGG [r6_869_JUSTAS] | -0.273 ± 0.28 | 1.26 ± 0.24 | 0.883 ± 0.28
